The source of these data is patent publication US20150344570A1 (published 2015).

The target in test [1] is T1, FcγRIIIa extracellular domain with C-terminal His tag (human, UniProt P08637 17-208).
T1 construct: extracellular domain; also called FcgRIIIa; 3a; not shown: His tag at the C terminus
Briefly: SPR (Biacore); He/Con_3a divided by He/Con_2b (FcγRIIb). On the technique in general: In SPR one partner is held on a chip, and binding of the other changes the refractive index at the surface.

The target in test [2] is T2, FcγRIIb extracellular domain with C-terminal His tag (human, UniProt P31994 43-217).
T2 construct: extracellular domain; also called FcgRIIb; 2b; not shown: His tag at the C terminus
T2 sequence (looked up): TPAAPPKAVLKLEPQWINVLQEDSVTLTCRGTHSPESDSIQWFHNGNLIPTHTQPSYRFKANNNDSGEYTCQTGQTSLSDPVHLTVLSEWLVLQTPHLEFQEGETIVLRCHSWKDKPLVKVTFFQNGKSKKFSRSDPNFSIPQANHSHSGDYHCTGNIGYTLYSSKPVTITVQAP
In words: SPR (Biacore), FcγR as analyte over captured antibody; GpH7-A5/GpH7-B3/GpL16-k0 = 100. As for the experimental part: (§1) The heterodimerized antibodies He Abs in which one of the H chains was introduced with an alteration were assayed for their binding activities to each activating FcγR and inhibitory FcγR according to the method described in Example 4. […] The activating FcγRs in FIGS. 26, 27, 28, and 29 are FcγRIa, FcγRIIa (R), FcγRIIa (H), and FcγRIIIa, respectively.
(§2) Analysis of interaction between objective antibody and the FcγR was carried out using Biacore T100 (GE Healthcare). HBS-EP+ (GE Healthcare) was used as the running buffer, and the measurement temperature was set to 25° C. Chips produced by immobilizing the antigen peptide by the amine coupling method to a Series S Sencor Chip CM5 (GE Healthcare), or alternatively, chips produced by allowing preliminarily biotinylated antigen peptides to interact with and immobilize onto a Series S Sensor Chip SA (certified) (GE Healthcare) were used. Antibodies of interest were captured onto an antigen peptide-immobilized chip, and allowed to interact to each FcγR diluted with running buffer. To regenerate and repeatedly use the chip, the antibodies captured on the chip were washed off by reacting 10 mM glycine-HCl, pH 1.5.

In test [3] the target is T1, FcγRIIIa extracellular domain with …. Described as above. As for the experimental part: as §1, §2

T1 sequence (P08637 17-208): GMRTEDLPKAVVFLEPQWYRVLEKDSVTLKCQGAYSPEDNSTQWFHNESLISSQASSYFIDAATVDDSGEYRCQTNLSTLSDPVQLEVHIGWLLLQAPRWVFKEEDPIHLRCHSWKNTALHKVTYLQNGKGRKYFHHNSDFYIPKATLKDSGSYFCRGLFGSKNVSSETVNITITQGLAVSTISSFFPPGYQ

B1: GpH7-A5/GpH7-B3 variant K326_04F/GpL16-k0 (antibody, human IgG1, kappa)
heavy 1: not shown
heavy 2: not shown
light: DIVMTQSPLSLPVTPGEPASISCQASESLVHSNRNTYLHWYLQKPGQSPQLLIYKVSNRFSGVPDRFSGSGSGTDFTLKISRVEAEDVGVYYCSQNTHVPPTFGQGTKVEIERTVAAPSVFIFPPSDEQLKSGTASVVCLLNNFYPREAKVQWKVDNALQSGNSQESVTEQDSKDSTYSLSSTLTLSKADYEKHKVYACEVTHQGLSSPVTKSFNRGEC
notes: Heterodimerized IgG1 antibody; alteration in the GpH7-B3 chain only; also called He Ab
In the case of B1, the “He_3a/2b (IIIa/IIb)” value in test [1] is 0.66 ratio. Besides, the He/Con_2b in test [2] was 155 % of control. The He/Con_3a in test [3] was 103 % of control.

B2: GpH7-A5/GpH7-B3 variant K326_15Y/GpL16-k0 (antibody, human IgG1, kappa)
heavy 1: not shown
heavy 2: not shown
light: DIVMTQSPLSLPVTPGEPASISCQASESLVHSNRNTYLHWYLQKPGQSPQLLIYKVSNRFSGVPDRFSGSGSGTDFTLKISRVEAEDVGVYYCSQNTHVPPTFGQGTKVEIERTVAAPSVFIFPPSDEQLKSGTASVVCLLNNFYPREAKVQWKVDNALQSGNSQESVTEQDSKDSTYSLSSTLTLSKADYEKHKVYACEVTHQGLSSPVTKSFNRGEC
notes: as for B1
In the case of B2, in test [1], the “He_3a/2b (IIIa/IIb)” value came to 0.7 ratio. In addition, in test [2], the He/Con_2b is 159 % of control. Moreover, the He/Con_3a in test [3] was 112 % of control.

B3: GpH7-A5/GpH7-B3 variant K326_09D/GpL16-k0 (antibody, human IgG1, kappa)
heavy 1: not shown
heavy 2: not shown
light: DIVMTQSPLSLPVTPGEPASISCQASESLVHSNRNTYLHWYLQKPGQSPQLLIYKVSNRFSGVPDRFSGSGSGTDFTLKISRVEAEDVGVYYCSQNTHVPPTFGQGTKVEIERTVAAPSVFIFPPSDEQLKSGTASVVCLLNNFYPREAKVQWKVDNALQSGNSQESVTEQDSKDSTYSLSSTLTLSKADYEKHKVYACEVTHQGLSSPVTKSFNRGEC
notes: as for B1
Turning to B3, in test [1], the “He_3a/2b (IIIa/IIb)” value turned out to be 0.69 ratio. In addition, in test [2], the He/Con_2b was 193 % of control. Further, the He/Con_3a in test [3] was 134 % of control.

B4: GpH7-A5/GpH7-B3 variant K326_08L/GpL16-k0 (antibody, human IgG1, kappa)
heavy 1: not shown
heavy 2: not shown
light: DIVMTQSPLSLPVTPGEPASISCQASESLVHSNRNTYLHWYLQKPGQSPQLLIYKVSNRFSGVPDRFSGSGSGTDFTLKISRVEAEDVGVYYCSQNTHVPPTFGQGTKVEIERTVAAPSVFIFPPSDEQLKSGTASVVCLLNNFYPREAKVQWKVDNALQSGNSQESVTEQDSKDSTYSLSSTLTLSKADYEKHKVYACEVTHQGLSSPVTKSFNRGEC
notes: as for B1
Consider B4, for which the “He_3a/2b (IIIa/IIb)” value in test [1] stood at 0.65 ratio. In addition, the He/Con_2b in test [2] is 177 % of control. Also, the He/Con_3a in test [3] is 114 % of control.

B5: GpH7-A5/GpH7-B3 variant K326_06M/GpL16-k0 (antibody, human IgG1, kappa)
heavy 1: not shown
heavy 2: not shown
light: DIVMTQSPLSLPVTPGEPASISCQASESLVHSNRNTYLHWYLQKPGQSPQLLIYKVSNRFSGVPDRFSGSGSGTDFTLKISRVEAEDVGVYYCSQNTHVPPTFGQGTKVEIERTVAAPSVFIFPPSDEQLKSGTASVVCLLNNFYPREAKVQWKVDNALQSGNSQESVTEQDSKDSTYSLSSTLTLSKADYEKHKVYACEVTHQGLSSPVTKSFNRGEC
notes: as for B1
Turning to B5, in test [1], the “He_3a/2b (IIIa/IIb)” value is 0.7 ratio. In addition, the He/Con_2b in test [2] is 165 % of control. Moreover, in test [3], the He/Con_3a was 115 % of control.

B6: GpH7-A5/GpH7-B3 variant K326_10E/GpL16-k0 (antibody, human IgG1, kappa)
heavy 1: not shown
heavy 2: not shown
light: DIVMTQSPLSLPVTPGEPASISCQASESLVHSNRNTYLHWYLQKPGQSPQLLIYKVSNRFSGVPDRFSGSGSGTDFTLKISRVEAEDVGVYYCSQNTHVPPTFGQGTKVEIERTVAAPSVFIFPPSDEQLKSGTASVVCLLNNFYPREAKVQWKVDNALQSGNSQESVTEQDSKDSTYSLSSTLTLSKADYEKHKVYACEVTHQGLSSPVTKSFNRGEC
notes: as for B1
For B6, the “He_3a/2b (IIIa/IIb)” value in test [1] worked out at 0.62 ratio. The He/Con_2b in test [2] is 200 % of control. The He/Con_3a in test [3] was 124 % of control.

B7: GpH7-A5/GpH7-B3 variant K326_07I/GpL16-k0 (antibody, human IgG1, kappa)
heavy 1: not shown
heavy 2: not shown
light: DIVMTQSPLSLPVTPGEPASISCQASESLVHSNRNTYLHWYLQKPGQSPQLLIYKVSNRFSGVPDRFSGSGSGTDFTLKISRVEAEDVGVYYCSQNTHVPPTFGQGTKVEIERTVAAPSVFIFPPSDEQLKSGTASVVCLLNNFYPREAKVQWKVDNALQSGNSQESVTEQDSKDSTYSLSSTLTLSKADYEKHKVYACEVTHQGLSSPVTKSFNRGEC
notes: as for B1
For B7, the “He_3a/2b (IIIa/IIb)” value in test [1] came to 0.7 ratio. Also, the He/Con_2b in test [2] was 199 % of control. In test [3], the He/Con_3a was 139 % of control.
